{"source": "patent US20240084023A1", "about": "(NGM BIOPHARMACEUTICALS, published 2024)", "binders": {"B1": {"name": "anti-GCGR antibody Hz6B5 (antibody, V domains shown)", "VH": "QVQLVQSGAEVKKPGSSVKVSCKASGFTFTNHWLGWVRQAPGQGLEWIGDIYPGGYYINYNEKFKGRVTITADESTSTAYMELSSLRSEDTAVYYCARHTNYGSDYWGQGTTVTVSS", "VL": "DVVMTQSPLSLPVTLGQPASISCRSSQSIVDSYGNTFLEWYQQRPGQSPRLLIYKVSNRLSGVPDRFSGSGSGTDFTLKISRVEAEDVGVYYCFQGSHVPWTFGQGTKLEIK", "notes": "Humanized 6B5"}}, "experiment_in_all_cases": "flow cytometry on transfected 293XP cells", "key": {"[1]": {"target": "T1, GCGR extracellular domain alanine mutant L32A (human, UniProt P47871 26-136, limits assumed)", "T1 construct": "expressed in 293XP cells", "T1 chain": "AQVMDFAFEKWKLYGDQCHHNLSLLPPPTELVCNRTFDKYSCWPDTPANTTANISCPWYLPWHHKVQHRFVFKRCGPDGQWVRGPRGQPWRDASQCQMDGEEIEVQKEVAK", "description": "(§1) To assist in gathering information on the GCGR epitope that the 6B5 binning group bound to, “alanine scanning mutagenesis” was undertaken. These alanine scanning mutagenesis platform is a technique used for mapping both linear and conformational antigen epitopes by evaluating the effects of point mutations across a target protein. Single residues in a target protein are replaced by alanine one at a time to construct a mutant library. Each variant is assayed for its ability to bind to an antibody of interest. […] Amino acids across the extracellular domain of GCGR were mutated to alanine and the anti-GCGR antibody Hz6B5 was tested for binding to the alanine mutants.\n(§2) The wild-type GCGR extracellular domain and the alanine mutants were each transfected into 293XP cells and incubated for 24 hours. Antibody Hz6B5 was incubated with the transfected cells for 30 minutes at 4° C. After washing with PBS/1% BSA/0.1% azide, the cells were incubated with a labeled anti-mouse Fc antibody (Jackson Immunoresearch) for 30 minutes at 4° C. After washing with PBS/1% BSA/0.1% azide, the cells were analyzed using a flow cytometer BD (FACSCalibur instrument) and cytometric analytical software (FlowJo). A serum sample from a mouse immunized with human GCGR was used as positive control to confirm expression of the alanine mutants."}, "[2]": {"target": "T2, GCGR extracellular domain alanine mutant W36A (human, UniProt P47871 26-136, limits assumed)", "T2 construct": "expressed in 293XP cells", "T2 chain": "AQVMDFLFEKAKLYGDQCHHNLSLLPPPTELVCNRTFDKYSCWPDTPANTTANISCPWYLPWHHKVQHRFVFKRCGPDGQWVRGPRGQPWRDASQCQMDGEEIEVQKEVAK", "description": "as §1, §2"}, "[3]": {"target": "T3, GCGR extracellular domain alanine mutant W83A (human, UniProt P47871 26-136, limits assumed)", "T3 construct": "expressed in 293XP cells", "T3 chain": "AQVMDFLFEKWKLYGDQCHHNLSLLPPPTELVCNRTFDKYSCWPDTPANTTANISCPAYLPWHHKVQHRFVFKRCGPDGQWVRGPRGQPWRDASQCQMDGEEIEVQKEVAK", "description": "as §1, §2"}, "[4]": {"target": "T4, GCGR extracellular domain alanine mutant R108A (human, UniProt P47871 26-136, limits assumed)", "T4 construct": "expressed in 293XP cells", "T4 chain": "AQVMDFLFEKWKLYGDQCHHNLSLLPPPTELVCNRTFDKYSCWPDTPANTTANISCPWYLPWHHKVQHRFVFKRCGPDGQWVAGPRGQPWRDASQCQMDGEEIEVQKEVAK", "description": "as §1, §2"}, "[5]": {"target": "T5, wild-type GCGR extracellular domain expressed in 293XP cells (human, UniProt P47871 26-136, limits assumed)", "T5 construct": "transfected into 293XP cells; also called WT GCGR", "description": "as §1, §2"}, "[6]": {"target": "T6, GCGR extracellular domain alanine mutant F33A (human, UniProt P47871 26-136, limits assumed)", "T6 construct": "expressed in 293XP cells", "T6 chain": "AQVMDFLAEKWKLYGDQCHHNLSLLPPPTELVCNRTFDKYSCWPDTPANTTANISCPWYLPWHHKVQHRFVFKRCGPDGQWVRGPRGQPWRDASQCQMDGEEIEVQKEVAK", "description": "as §1, §2"}, "[7]": {"target": "T7, GCGR extracellular domain alanine mutant H44A (human, UniProt P47871 26-136, limits assumed)", "T7 construct": "expressed in 293XP cells", "T7 chain": "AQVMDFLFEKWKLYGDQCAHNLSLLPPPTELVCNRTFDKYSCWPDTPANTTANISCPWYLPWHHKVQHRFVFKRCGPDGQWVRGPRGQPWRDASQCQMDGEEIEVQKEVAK", "description": "as §1, §2"}, "[8]": {"target": "T8, GCGR extracellular domain alanine mutant F31A (human, UniProt P47871 26-136, limits assumed)", "T8 construct": "expressed in 293XP cells", "T8 chain": "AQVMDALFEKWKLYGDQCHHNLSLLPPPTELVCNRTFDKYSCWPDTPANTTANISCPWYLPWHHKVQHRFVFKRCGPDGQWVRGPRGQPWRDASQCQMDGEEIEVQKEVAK", "description": "as §1, §2"}, "[9]": {"target": "T9, GCGR extracellular domain alanine mutant R94A (human, UniProt P47871 26-136, limits assumed)", "T9 construct": "expressed in 293XP cells", "T9 chain": "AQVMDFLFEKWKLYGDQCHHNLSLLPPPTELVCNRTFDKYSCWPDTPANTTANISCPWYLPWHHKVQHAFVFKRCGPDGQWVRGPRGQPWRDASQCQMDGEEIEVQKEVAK", "description": "as §1, §2"}, "[10]": {"target": "T10, GCGR extracellular domain alanine mutant K90A (human, UniProt P47871 26-136, limits assumed)", "T10 construct": "expressed in 293XP cells", "T10 chain": "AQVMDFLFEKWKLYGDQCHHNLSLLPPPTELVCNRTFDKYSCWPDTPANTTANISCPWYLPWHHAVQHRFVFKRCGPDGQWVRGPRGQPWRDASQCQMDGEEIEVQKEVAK", "description": "as §1, §2"}, "[11]": {"target": "T11, GCGR extracellular domain alanine mutant Q113A (human, UniProt P47871 26-136, limits assumed)", "T11 construct": "expressed in 293XP cells", "T11 chain": "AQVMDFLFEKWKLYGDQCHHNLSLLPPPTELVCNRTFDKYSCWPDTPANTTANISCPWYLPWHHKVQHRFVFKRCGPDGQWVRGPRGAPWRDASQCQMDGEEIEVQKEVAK", "description": "as §1, §2"}, "[12]": {"target": "T12, GCGR extracellular domain alanine mutant L38A (human, UniProt P47871 26-136, limits assumed)", "T12 construct": "expressed in 293XP cells", "T12 chain": "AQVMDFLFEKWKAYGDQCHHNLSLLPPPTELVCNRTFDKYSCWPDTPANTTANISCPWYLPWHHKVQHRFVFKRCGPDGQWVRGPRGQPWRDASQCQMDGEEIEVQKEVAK", "description": "as §1, §2"}, "[13]": {"target": "T13, GCGR extracellular domain alanine mutant Y84A (human, UniProt P47871 26-136, limits assumed)", "T13 construct": "expressed in 293XP cells", "T13 chain": "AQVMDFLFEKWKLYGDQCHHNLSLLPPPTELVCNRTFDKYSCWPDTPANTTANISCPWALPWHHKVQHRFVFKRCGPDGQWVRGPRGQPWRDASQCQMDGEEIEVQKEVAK", "description": "as §1, §2"}}}
{"binder": "B1", "values": [{"measurement": "% positive cells", "setting": "[1]", "result": 76.9, "unit": "%"}, {"measurement": "% positive cells", "setting": "[2]", "result": 70.9, "unit": "%"}, {"measurement": "% positive cells", "setting": "[3]", "result": 72.6, "unit": "%"}, {"measurement": "% positive cells", "setting": "[4]", "result": 87, "unit": "%"}, {"measurement": "% positive cells", "setting": "[5]", "result": 87.8, "unit": "%"}, {"measurement": "% positive cells", "setting": "[6]", "result": 71.8, "unit": "%"}, {"measurement": "% positive cells", "setting": "[7]", "result": 82.2, "unit": "%"}, {"measurement": "% positive cells", "setting": "[8]", "result": 85.1, "unit": "%"}, {"measurement": "% positive cells", "setting": "[9]", "result": 0, "unit": "%"}, {"measurement": "% positive cells", "setting": "[10]", "result": 83, "unit": "%"}, {"measurement": "% positive cells", "setting": "[11]", "result": 83.4, "unit": "%"}, {"measurement": "% positive cells", "setting": "[12]", "result": 3.3, "unit": "%"}, {"measurement": "% positive cells", "setting": "[13]", "result": 63.4, "unit": "%"}]}
